Measurements: patent publication US20220357345A1

Columns and labels:
[1] = target: Aβ1-42 labelled with HiLyte Fluor 488 (UniProt P05067); assay: microscale thermophoresis (Monolith NT.115); labelled Aβ1-42 kept at 4 °C for one week (oligomers and fibres), PPP serially diluted
[2] = target: Aβ1-42 labelled with HiLyte Fluor 488 (UniProt P05067); assay: microscale thermophoresis (Monolith NT.115); HiLyte Fluor 488-labelled Aβ1-42 at 80 nM in PBS, PPP serially diluted; freshly dissolved Aβ1-42

UniProt P05067, sequence (P05067 672-713 limits assumed): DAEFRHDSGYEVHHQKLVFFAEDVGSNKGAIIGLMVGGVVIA

- Kd [1]: 0.0254 µM
- Kd [2]: 0.0066 µM
Substance: Aβ-binding polymer (phagocytosis-promoting peptide, PPP): small peptide chain randomly synthesized from glutamic acid, lysine, alanine and tyrosine, molecular weight 4 kD to 52 kD (average 6.5 kD)
